Assay results published in US20200188541A1.

How the values were obtained:
[1] = target: HER2 extracellular domain (coated on magnetic beads) (UniProt P04626); assay: Lindmo method, magnetic beads coated with HER2 extracellular domain (BSA beads as negative control), paired-label
[2] = target: Human epidermal growth factor receptor 2 (HER2) on BT474M1 human breast carcinoma cells (human) (UniProt P04626); assay: saturation binding of radiolabeled VHH on BT474M1 cells at 4 C, non-specific binding with 100-fold excess trastuzumab

Substance | immunoreactive fraction [1] [%] | Kd [2] [nM]
[^131I]SGMIB-5F7 VHH | 84.5 | 
[^211At]SAGMB-5F7 VHH | 83.5 | 4.5
iso-[^131I]SGMIB-5F7 VHH | 81.8 | 
iso-[^211At]SAGMB-5F7 VHH | 81.3 | 
